Results as given in PMC8092406 (Proceedings of the National Academy of Sciences of the …, 2021).

Target: the molecule itself
Assay: negative-stain electron microscopy

B1: Cp183-F97L (natural protein)
chain: MDIDPYKEFGATVELLSFLPSDFFPSVRDLLDTASALYREALESPEHCSPHHTALRQAILCWGELMTLATWVGVNLEDPASRDLVVSYVNTNMGLKLRQLLWFHISCLTFGRETVIEYLVSFGVWIRTPPAYRPPNAPILSTLPETTVVRRRGRSPRRRTPSPRRRRSQSPRRRRSQSRESQC
binding result: binds

B2: Cp149, CTD-less HBV core protein (domain or fragment)
chain: MDIDPYKEFGATVELLSFLPSDFFPSVRDLLDTASALYREALESPEHCSPHHTALRQAILCWGELMTLATWVGVNLEDPASRDLVVSYVNTNMGLKFRQLLWFHISCLTFGRETVIEYLVSFGVWIRTPPAYRPPNAPILSTLPETTVV
binding result: binds
